According to patent US10428140B2, “Anti-EphA4 antibody” (EISAI R&D MANAGEMENT CO., LTD., priority 2015, dated 2019):

T1: human EphA1 (Homo sapiens, UniProt P21709)
T1 construct: a protein of the extracellular region of each human Eph receptor fused with the SEAP protein and the His tag; made in house; host or cells: Expi293F cells (culture supernatant)
T1 sequence (P21709 26-547 limits assumed): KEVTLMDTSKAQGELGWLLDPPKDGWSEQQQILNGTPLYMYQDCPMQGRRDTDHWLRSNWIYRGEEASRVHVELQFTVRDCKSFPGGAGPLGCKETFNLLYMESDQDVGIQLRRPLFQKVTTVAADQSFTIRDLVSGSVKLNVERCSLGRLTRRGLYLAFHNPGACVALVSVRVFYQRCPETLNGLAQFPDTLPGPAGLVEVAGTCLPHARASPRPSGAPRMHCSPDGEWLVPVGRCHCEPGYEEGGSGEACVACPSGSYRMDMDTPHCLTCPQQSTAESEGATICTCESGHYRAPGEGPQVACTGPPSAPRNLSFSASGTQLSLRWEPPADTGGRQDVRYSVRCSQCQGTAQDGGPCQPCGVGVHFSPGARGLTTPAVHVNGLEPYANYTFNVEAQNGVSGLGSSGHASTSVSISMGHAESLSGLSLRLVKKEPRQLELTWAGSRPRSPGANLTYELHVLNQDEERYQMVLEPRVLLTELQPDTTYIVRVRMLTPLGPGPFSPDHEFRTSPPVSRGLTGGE

T2: human EphA10 (Homo sapiens, UniProt Q5JZY3)
T2 construct: a protein of the extracellular region of each human Eph receptor fused with the SEAP protein and the His tag; made in house; host or cells: Expi293F cells (culture supernatant)
T2 sequence (Q5JZY3 34-565 limits assumed): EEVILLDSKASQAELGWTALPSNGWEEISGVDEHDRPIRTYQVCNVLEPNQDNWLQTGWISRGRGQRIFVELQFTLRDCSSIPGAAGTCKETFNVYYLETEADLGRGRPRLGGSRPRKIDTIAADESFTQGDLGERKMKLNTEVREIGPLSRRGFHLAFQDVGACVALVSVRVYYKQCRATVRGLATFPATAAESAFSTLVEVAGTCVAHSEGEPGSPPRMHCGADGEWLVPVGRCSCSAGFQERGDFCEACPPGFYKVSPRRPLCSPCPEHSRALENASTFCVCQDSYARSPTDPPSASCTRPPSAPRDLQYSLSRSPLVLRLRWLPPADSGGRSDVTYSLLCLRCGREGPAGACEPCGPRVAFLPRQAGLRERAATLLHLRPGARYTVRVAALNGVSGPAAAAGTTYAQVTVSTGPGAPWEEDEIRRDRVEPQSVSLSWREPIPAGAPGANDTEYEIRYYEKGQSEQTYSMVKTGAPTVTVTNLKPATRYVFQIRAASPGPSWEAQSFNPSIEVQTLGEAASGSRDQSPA

T3: human EphA6 (Homo sapiens, UniProt Q9UF33)
T3 construct: a protein of the extracellular region of each human Eph receptor fused with the SEAP protein and the His tag; made in house; host or cells: Expi293F cells (culture supernatant)
T3 sequence (Q9UF33 23-550 limits assumed): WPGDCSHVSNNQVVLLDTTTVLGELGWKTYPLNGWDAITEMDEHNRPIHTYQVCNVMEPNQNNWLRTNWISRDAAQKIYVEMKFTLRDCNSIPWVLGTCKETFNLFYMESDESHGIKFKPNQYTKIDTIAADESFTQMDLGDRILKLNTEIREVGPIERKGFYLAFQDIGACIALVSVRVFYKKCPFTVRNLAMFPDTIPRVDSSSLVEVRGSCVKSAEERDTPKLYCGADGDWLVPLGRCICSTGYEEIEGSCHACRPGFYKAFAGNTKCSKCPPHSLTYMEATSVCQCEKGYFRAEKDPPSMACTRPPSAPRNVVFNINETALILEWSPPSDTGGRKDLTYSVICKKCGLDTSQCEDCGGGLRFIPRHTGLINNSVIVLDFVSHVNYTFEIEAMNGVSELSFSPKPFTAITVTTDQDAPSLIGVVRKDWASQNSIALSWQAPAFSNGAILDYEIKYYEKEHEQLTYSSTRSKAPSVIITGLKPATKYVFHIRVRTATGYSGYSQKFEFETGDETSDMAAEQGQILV


Tests used:
Assay in all cases: Selectivity ELISA of humanized antibodies for human Eph receptor
Type in all cases: binding
Details in all cases: coated protein 1 nM
[1] = target: T1, human EphA1
Outline: (§1)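 His-tagged SEAP fusions of each human Eph receptor extracellular region, from Expi293F supernatants, were captured at 1 nM on anti-His-coated wells. Humanized antibody was bound 1 h at room temperature, then detected with HRP […] IgG. TMB development was acid-stopped and read at 450 nm.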

[2] = target: T2, human EphA10
Outline: as §1

[3] = target: T3, human EphA6
Outline: as §1

Row | Molecule | hEphA1-SEAP-: absorbance at 450 nm, percentage with respect to hEphA4-SEAP-His as 100% [1] | hEphA10-SEAP-: absorbance at 450 nm, percentage with respect to hEphA4-SEAP-His as 100% [2] | hEphA6-SEAP-: absorbance at 450 nm, percentage with respect to hEphA4-SEAP-His as 100% [3]
1 | 75 (antibody, synthetic humanized antibody heavy chain variable region sequence; synthetic humanized antibody light chain variable region sequence; synthetic antibody constant region sequence) VH: QVQLVQSGSELKKPGASVKVSCKASGYTFTDYSMHWVRQAPGQGLEWMGWINTETGEPTYAQGFTGRFVFSLDTSVSTAYLQISSLKAEDTAVYYCARIPLYYYGSRYWYFDVWGQGTTVTVSS VL: DIQMTQSPSSLSASVGDRVTITCRASENIYRNLAWYQQKPGKAPKLLVYAATNLADGVPSRFSGSGSGTDYTLTISSLQPEDFATYYCQHFWGTPWTFGQGTKVEIK ASTKGPSVFPLAPSSKSTSGGTAALGCLVKDYFPEPVTVSWNSGALTSGVHTFPAVLQSSGLYSLSSVVTVPSSSLGTQTYICNVNHKPSNTKVDKRVEPKSCDKTHTCPPCPAPPAAAPSVFLFPPKPKDTLMISRTPEVTCVVVDVSHEDPEVQFNWYVDGVEVHNAKTKPREEQFNSTFRVVSVLTVVHQDWLNGKEYKCKVSNKGLPAPIEKTISKTKGQPREPQVYTLPPSREEMTKNQVSLTCLVKGFYPSDIAVEWESNGQPENNYKTTPPMLDSDGSFFLYSKLTVDKSRWQQGNVFSCSVMHEALHNHYTQKSLSLSPG | 4.7% | 4.4% | 8.3%
2 | 67 (antibody, V domains shown, synthetic humanized antibody heavy chain variable region sequence; synthetic humanized antibody light chain variable region sequence) VH: QIQLVQSGSELKKPGASVKVSCKASGYTFTDYSMHWVRQAPGQGLKWMGWINTETGEPTYAQGFTGRFVFSLDTSVSTAYLQISSLKAEDTAVYYCARIPLYYYGSRYWYFDVWGQGTTVTVSS VL: DIQMTQSPSSLSASVGDRVTITCRASENIYRNLAWYQQKPGKAPKLLVYAATNLADGVPSRFSGSGSGTDYTLTISSLQPEDFATYYCQHFWGTPWTFGQGTKVEIK | 4.6% | 4.6% | 7.3%
3 | 77 (antibody, V domains shown, synthetic humanized antibody heavy chain variable region sequence; synthetic humanized antibody light chain variable region sequence) VH: QVQLVQSGSELKKPGASVKVSCKASGYTFTDYSMHWVRQAPGQGLEWMGWINTETGEPTYADDFKGRFVFSLDTSVSTAYLQISSLKAEDTAVYYCARIPLYYYGSRYWYFDVWGQGTTVTVSS VL: DIQMTQSPSSLSASVGDRVTITCRASENIYRNLAWYQQKPGKAPKLLVYAATNLADGVPSRFSGSGSGTDYTLTISSLQPEDFATYYCQHFWGTPWTFGQGTKVEIK | 4.5% | 4.5% | 6.0%
4 | 156 (antibody, V domains shown, synthetic humanized antibody heavy chain variable region sequence; synthetic humanized antibody light chain variable region sequence) VH: QIQLVQSGSELKKPGASVKVSCKASGYTFTDYSMHWVRQAPGQGLKWMGWINTETGEPTYAQGFTGRFVFSLDTSVSTAYLQISSLKAEDTAVYYCARIPLYYYGSRYWYFDVWGQGTTVTVSS VL: DIQMTQSPSSLSASVGDRVTITCRASENIYRNLAWYQQKPGKAPQLLLYAATNLADGVPSRFSGSGSGTDYTLTISSLQPEDFATYYCQHFWGTPWTFGQGTKVEIK | 5.7% | 5.3% | 8.9%
5 | 136 (antibody, V domains shown, synthetic humanized antibody heavy chain variable region sequence; synthetic humanized antibody light chain variable region sequence) VH: QVQLVQSGSELKKPGASVKVSCKASGYTFTDYSMHWVRQAPGQGLKWMGWINTETGEPTYADDFKGRFVFSLDTSVSTAYLQISSLKAEDTAVYYCARIPLYYYGSRYWYFDVWGQGTTVTVSS VL: EIVMTQSPATLSVSPGERATLSCRASENIYRNLAWYQQKPGQSPRLLIYAATNLADGIPARFSGSGSGTEYTLTISSLQSEDFAVYYCQHFWGTPWTFGQGTKVEIK | 5.3% | 5.2% | 7.2%
6 | 76 (antibody, V domains shown, synthetic humanized antibody heavy chain variable region sequence; synthetic humanized antibody light chain variable region sequence) VH: QVQLVQSGSELKKPGASVKVSCKASGYTFTDYSMHWVRQAPGQGLKWMGWINTETGEPTYAQGFTGRFVFSLDTSVSTAYLQISSLKAEDTAVYYCARIPLYYYGSRYWYFDVWGQGTTVTVSS VL: DIQMTQSPSSLSASVGDRVTITCRASENIYRNLAWYQQKPGKAPKLLVYAATNLADGVPSRFSGSGSGTDYTLTISSLQPEDFATYYCQHFWGTPWTFGQGTKVEIK | 5.1% | 4.7% | 7.9%
7 | 78 (antibody, V domains shown, synthetic humanized antibody heavy chain variable region sequence; synthetic humanized antibody light chain variable region sequence) VH: QVQLVQSGSELKKPGASVKVSCKASGYTFTDYSMHWVRQAPGQGLKWMGWINTETGEPTYADDFKGRFVFSLDTSVSTAYLQISSLKAEDTAVYYCARIPLYYYGSRYWYFDVWGQGTTVTVSS VL: DIQMTQSPSSLSASVGDRVTITCRASENIYRNLAWYQQKPGKAPKLLVYAATNLADGVPSRFSGSGSGTDYTLTISSLQPEDFATYYCQHFWGTPWTFGQGTKVEIK | 6.6% | 5.2% | 10.0%
